# Assay results: article PMC3985756 (Biochemistry, 2014)
# B1: N-terminal six-His-tagged FosB from Staphylococcus aureus with a bacillithiol-Cys9 disulfide bond (enzyme)
# chain: not shown
# modifications: Cys9 in a disulfide bond with bacillithiol (BS-Cys9)
# Molecular target: the molecule itself
# Test: crystal structure
protein,measurement,value
B1,stoichiometry N,2
